Results on 2 molecules are retold here after patent US10501502B2, “Allophycocyanin alpha-subunit evolved labeling proteins (smURFPs)” (The Regents of the University of California, priority 2016, dated 2019).

A value given as a limit tells only on which side of the number the result lay.

A short description of data set [1]: Native PAGE quaternary structure / stoichiometry. The data set is classed as physicochemical. Particulars: for stoichiometry: Table 5. Here is the method:
Native PAGE was run using NativePAGE Novex Bis-Tris Gel System (Life Technologies) on Native PAGE 4-16% Bis-Tris protein gels (Life Technologies). SDS-denaturing PAGE was run using NuPAGE MOPS SDS running buffer (Life Technologies) and NuPAGE Novex 4-12% Bis-Tris gels (Life Technologies). Precision Plus Protein Dual Color Standards (Bio-Rad) were used as an MW ladder. Zinc blot was performed after running the SDS-PAGE gel using the described method^44. Fluorescence was imaged using a BioSpectrum AC Imaging System (UVP) with EX/EM=535(45)/605(70) nm for tdTomato, EX/EM=650(13)/690(50) nm for smURFP and TDsmURFP, EX/EM=685(40)/710LP nm for IFP1.4 and BV+zinc.

Another data set concerns HT1080 cells. As to the kind of experiment: FP fluorescence in HT1080 cells in vitro. The data set is classed as cell-based. Particulars: for fold greater fluorescence than mCardinal: BVMe2.
The test system of data set [2] is HEK293A cells. As to the kind of experiment: Fluorescence imaging of FPs in HEK293A cells with chromophore addition or HO-1 expression. The data set is classed as cell-based. The text has this:
smURFP codons were optimized for human cell expression, and the gene was created by GenScript. smURFP, TDsmURFP (created from mammalian-optimized smURFP), IFP1.4 (mammalian-optimized form^35), IFP2.0 (mammalian-optimized form^46), and iRFP713 (mammalian-optimized form^36) were PCR amplified using Phusion High-Fidelity DNA Polymerase (NEB) with primers containing 5′ HindIII and 3′ XhoI restriction enzyme sites. HindIII-HF and XhoI (NEB)-digested PCR fragments were gel purified (Zymoclean Gel DNA Recovery Kit) and were ligated (T4 DNA Ligase, Life Technologies) into a similarly digested pCDNA3-IRES-eGFP vector (bicistronic to express two FPs in the same cell). For creation of HO-1-expressing mammalian vec-tors, the Synechocystis HO-1 was used, and the codons were not optimized for mammalian expression. Synechocystis HO-1 was directly amplified from the pBAD vector using primers containing 5′ BsiWI and 3′ XbaI restriction enzyme sites. pCDNA3 smURFP, TDsmURFP, IFP1.4, IFP2.0, or iRFP713-IRES-eGFP vectors were digested with BsiWI and XbaI (NEB), dephosphorylated (SAP, Roche), gel purified (Zymoclean Gel DNA Recovery Kit), and ligated (T4 DNA Ligase, Life Technologies) with similarly digested, purified HO-1 PCR fragment. For creation of smURFP fusions, smURFP was PCR amplified using Phusion High-Fidelity DNA Polymerase (NEB) with primers containing 5′ AgeI and 3′ NotI restriction enzyme sites for N-terminal fusions or with primers containing 5′ AgeI and 3′ BspEI restriction enzyme sites for C-terminal fusions. mGeos2-VEL-ManII-N-10 (Addgene 57551) and Dronpa-PDHA1-N-10 (Addgene 57292) vectors were digested with AgeI and NotI (NEB) and mCherry-αTubulin-C-18 (Addgene 55148) and tdTomato-LaminB1-10 (Addgene 58107) were digested with AgeI and BspEI, dephosphorylated (SAP, Roche), gel purified (Zymoclean Gel DNA Recovery Kit), and ligated (T4 DNA Ligase, Life Technologies) with similarly digested, purified smURFP PCR fragment. HEK293A (Invitrogen, Life Technologies), HT1080 (ATCC), and PC3 (ATCC) cells were grown in Dulbecco's Modified Eagle's medium (DMEM, Corning), supplemented with 10% FBS (Atlanta Biologicals)+1×penicillin—streptomycin (Fisher Scientific), which is referred to as growth media, on poly-D-lysine-coated glass-bottom culture dishes (MatTek, No. P35G-0-14-C). The HEK cell line is listed in the ICLAC and NCBI biosample databases and is commonly misidentified as the HeLa cell line. For expression of exogenous fluorescent proteins, there is no problem if there is a contaminating cell line because no endogenous biology or therapeutic results are being determined. HEK293A cells were purchased from Invitrogen (Life Technologies), and all experiments are derived from the same expanded frozen stock without cell line authentication or mycoplasma detection. Cells were transfected using 2 μg of circular DNA+5 μl Lipofectamine 2000 (Life Technologies) in 2 ml Opti-MEM (Life Technologies) for 4-5 h, transfection media was discarded, and prewarmed growth media was added. Chromophores (5 mM in DMSO) were added at indicated concentrations to growth media, warmed for 10-15 min at 37° C., and added to cells. For multiple timepoints, incubations were staggered to maintain equivalent incubation. Prior to imaging, cells were washed 1×2 ml growth media, 2×2 ml imaging solution, and imaged in 2 ml imaging solution. Fluorescence imaging was performed on a Zeiss Axiovert 200M inverted microscope controlled by SlideBook software. FPs were imaged with the following settings: eGFP, EX/EM=495(10)/535(25) nm, tdTomato EX/EM=540(25)/595(50) nm; mCherry and mCardinal, EX/EM=580(20)/653(95) nm; smURFP and TDsmURFP, EX/EX=628(40)/680(30) nm; and IFP1.4, IFP2.0, and iRFP713, EX/EM=665(45)/725(50) nm. […]

Data set [3] deals with HEK293A cells. The experiment in a line: FP stability in HEK293A cells (cycloheximide). The data set is classed as cell-based. Conditions: for fold increase in smURFP fluorescence: HEK293A. Here is the method:
HEK293A cells were transfected with pCDNA3-smURFP-IRES-eGFP and incubated for 48 h. 50 μg/ml cycloheximide+25 μM BV, 5 μM BVMe2, or no chromophore was added and cells were imaged after 1, 10, 30, 60, 120, and 225 min. Fluorescence was fit to a single exponential decay (F=A [exp^−kt]), where F is fluorescence that varies as a function of time, A is the fit initial fluorescence, k is the rate of fluorescence decay (protein degradation), and t is time in min.

B1: smURFP: small ultra-red fluorescent protein, SEQ ID NO: 13, homodimer, covalently attaches biliverdin (protein)
chain: MKTSEQRVNIATLLTENKKKIVDKASQDLWRRHPDLIAPGGIAFSQRDRALCLRDYGWFLHLITFCLLAGDKGPIESIGLISIREMYNSLGVPVPAMMESIRCLKEASLSLLDEEDANETAPYFDYIIKAMS
modifications: homodimer; biliverdin chromophore; smRUFP Variant Polypeptide
Take B1: the “quaternary structure on native gel” value in data set [1] is recorded as “homodimer”. In data set [1], the stoichiometry entry is “Dimer”. In the data set on HT1080 cells (12.5 μM BV for 3 h), the “fluorescence relative to mCherry in HT1080 cells in vitro” value is “equivalent”. Moreover, in the data set on HT1080 cells (HT1080, T2A construct), the “fold greater fluorescence than mCardinal” value was found to be 4 fold. In addition, in the data set on HEK293A cells [2], the “brightness in cell culture compared with other FPs” value was “comparable brightness to eGFP and is brighter than mCherry, mCardinal, IFP1.4, IFP2.0, and iRFP713”. For the same molecule, the “fold increase in fluorescence with HO-1+5-ALA+FeSO4” value with HEK293A cells [2] (HEK293A cells) stood at 7.7 fold. Moreover, the “fold increase in fluorescence with expression of HO-1” value in the data set on HEK293A cells [2] (HEK293A cells) stood at 2.8 fold. The “fold increase in fluorescence with 25 μM BV” value in the data set on HEK293A cells [2] (HEK293A cells, 3 h) stood at 4.7 fold. Further, the “fold increase in fluorescence with 25 μM BVMe2 relative to 25 μM BV” value with HEK293A cells [2] (HEK293A cells, 3 h) came to 18 fold. In the data set on HEK293A cells [2] (HEK293A cells, 3 h), the “fold increase in fluorescence with 25 μM PCB relative to 25 μM BV” value came out at 10 fold. For the same molecule, in the data set with HEK293A cells [2] (HEK293A cells, in the presence of BVMe2), the “fluorescence relative to eGFP expressed from IRES” value is “five-fold greater fluorescence”. For the same molecule, the “fold increase in smURFP fluorescence” value in the data set with HEK293A cells [3] (5 μM BVMe2, 1 h) was 85 fold; in the data set on HEK293A cells [3] (5 μM BVMe2, 3 h), 85 fold; in the data set on HEK293A cells [3] (5 μM BVMe2, 48 h), 125 fold; in the data set on HEK293A cells [3] (25 μM BV, 3 h), 13 fold; with HEK293A cells [3] (25 μM BV, 48 h), 27 fold. Besides, the “protein stability t50%” value in the data set on HEK293A cells [3] (BV exposure 3 h) is recorded as 30 h; with HEK293A cells [3] (BVMe2 exposure 3 h) it was 33 h; in the data set with HEK293A cells [3] (HEK293A cells, cycloheximide) it was 33 h; with HEK293A cells [3] (continuously exposed to BV, cycloheximide), 33 h; in the data set on HEK293A cells [3] (continuously exposed to BVMe2, cycloheximide), 35 h; in the data set on HEK293A cells [3] (without chromophore (apoprotein)) it was 17 h.

B2: smURFP + BVMe2: smURFP with a single biliverdin dimethyl ester chromophore (protein)
chain: B1 chain
modifications: left off: small tags and cut ends
notes: smURFP with a single biliverdin dimethyl ester chromophore
Turning to B2, in data set [1], the stoichiometry entry is reported as “Dimer”. The “fold greater fluorescence than mCardinal” value with HT1080 cells (HT1080 stable lines expressing each FP separately) stood at 2 fold. Besides, the “fold brighter than IFP2.0 or iRFP713” value in the data set on HEK293A cells [2] (HEK293A cells) came out at 7 fold. Besides, the “fold increase in fluorescence relative to smURFP” value in the data set on HEK293A cells [2] (HEK293A cells, chromophore incubation 3 h) is reported as more than 32 fold. In the data set with HEK293A cells [3] (HEK293A cells, cycloheximide), the “protein stability t50%” value is 35 h.
